Assay results as given in patent US9702869B2, “Assays, antibodies, immunogens and compositions related to 5-FU” (WELLSTAT DIAGNOSTICS, LLC, priority 2011, dated 2017).

Tests used:
Format in all cases: binding
[1] = Hybridoma supernatant competition test in ECL bridging assay; settings: hybridoma culture supernatant; signal decreased in the presence of low level of 5-FU
Experimental: Hybridomas were screened between days 10-14 for the secretion of 5-FU antibody by the 5-FU antibody assay (Bridging-assay) described before. 25 μL of culture supernatant were transferred to an assay plate and mixed with 50 μL of 5-FU antibody assay master mix containing 100 ng/mL of each Bi-1-3C-5-FU-BSA and TAG Plus 1-3C-5-FU-BSA in 200 μg/mL of M280-SA beads. Samples were incubated for 30 minutes with shaking. Beads were recovered and resuspended in 150 μL of DILUENT and read in an M384 analyzer with 100 μL draw volume. Hybridomas identified from plates with greater than 20% of growing wells were re-cloned by limiting dilution in 96-well plate at 0.3 and 1.0 cells/well.
5-FU antibody specificity and cross-reactivity was tested on hybridomas that were identified as positive for 5-FU binding. […]
Typically, 25 μL of culture supernatant were mixed with 50 μL of 5-FU assay master mix containing 100 ng/mL of each Bi-1-3C-5-FU-BSA and TAG Plus 1-3C-5-FU-BSA in 200 μg/mL of M280-SA beads with or without competing chemicals. […] Beads were recovered and resuspended in 150 μL of DILUENT and read in an M384 analyzer with 100 μL draw volume.
X_RCT=cross-reactivity (calculated 5-FU concentration/10 μg/mL).

[2] = Indirect antibody ELISA, cross-reactivity with cytosine; settings: Table 3; (IC50 for 5-FU/IC50 for testing chemical)%
Description: (§1) This indirect antibody ELISA assay 5-FU assay was constructed using either 1-3C-5-FU-BSA or 1-5C-5-FU-BSA as antibody capture reagent and a horseradish perioxidase (HRP) conjugated goat anti-mouse antibody as the antibody detector reagent. The binding of 5-FU antibody was detected with 3,3,5,5-TetraMethylBenzidine (TMB) as the HRP enzyme substrate. The 5-FU ELISA assay signal (OD450) decreased proportionally to the increasing concentration of 5-FU. The 5-FU IC50 and tegafur cross-reactivity were determined as in the previous section.
(§2) In addition to tegafur, several 5-FU structurally related chemicals were also evaluated for their cross-reactivity to the antibodies generated with 5-FU conjugate with the 3-carbon linker and were summarized below in Table 3. […] However, antibody 36H11 was highly specific for 5-FU and was detected for about 12% or lower cross-reactivity with tegafur.

[3] = ECL assay with TAG Plus mAb as detector and position-3 modified 5-FU capture reagent; settings: Bi-3-5C-5-FU-HSA pre-bound M280-SA beads
Experimental: Unless otherwise specifically mentioned, a 5-FU immunoassay was set up by mixing the same volumes of sample with capture reagent first and then with detector reagent in a 96 well plate. After adding reagents, samples were mixed for 5 minutes at room temperature with shaking. After the incubation, beads were recovered by attaching a plate magnet to the assay plate for 2 minutes and resuspending in 150 μL of DILUENT. Samples were either read in an M384 or an M1MR analyzer with 100 μL draw volume under the 96 standard round plate protocol.
The performance of TAG Plus conjugated antibody 61C6 as an assay detector reagent was studied. Assay performance was evaluated in 5-FU Antibody Screening Buffer with a 5-fold 5-FU serial dilution curve from 150 μg/mL to 9.6 ng/mL as 5-FU calibrators (samples).
A total of 5 capture reagents were evaluated in this experiment. Three capture reagents were 5-FU bound to M280-SA beads through biotinylated BSA including Bi-1-3C-5-FU-BSA, Bi-1-5C-5-FU-BSA and Bi-3-5C-5-FU-HSA pre-bound to M280-SA beads at the ratio of 1.0 μg capture reagent per mg beads (200 μg/mL). […]
The assay detector reagent used was TAG Plus 5-FU mAb 61C6 at the concentration of 2.0 μg/mL. […] The plate was read in an M384 ECL Analyzer with a draw volume of 100 μL under 96 standard plate protocol. […]

[4] = Indirect antibody ELISA, cross-reactivity with thymine; settings: Table 3; (IC50 for 5-FU/IC50 for testing chemical)%
Description: as §1, §2

[5] = Indirect antibody ELISA, cross-reactivity with uracil; settings: Table 3; (IC50 for 5-FU/IC50 for testing chemical)%
Description: as §1, §2

[6] = Indirect antibody ELISA on 5-FU-BSA coated plates, competition with 5-FU
Experimental: (§3) In this experiment, antibody capture reagents were 5-FU BSA conjugates modified at the 5-FU position 1 with either 3-carbon or 5-carbon linkers. 5-FU was conjugated to BSA by mixing 1-5C-5-FU-NHS ester with BSA at a challenge ratio of 12:1 (molar ratios of 1-5C-5-FU-NHS to BSA) in a phosphate buffer containing a phosphate buffered saline containing 10.5 mM KH2PO4, 139.5 mM K2HPO4 and 150.6 mM NaCl, =pH 7.7-7.9 (typically pH 7.8) for 1 hour or more incubation at room temperature (typically 1 hour incubation at room temperature). After the incubation, unbound 1-5C-5-FU-NHS ester was removed by 3 buffer exchanges in an AmiconUltra4-30K filter (Millipore, Cat#UFC803024). BSA conjugated with 5-FU (5-FU-BSA) was concentrated and stored in the same phosphate buffer (pH 7.8).
as §1, with “section. […]” for “section.”

[7] = Indirect antibody ELISA, cross-reactivity with tegafur; settings: (IC50 for 5-FU/IC50 for testing chemical)%
Experimental: as §3, with “BSA conjugated with 5-FU (5-FU-BSA) was concentrated and stored in the same phosphate buffer (pH 7.8).” left out
as §1, with “The 5-FU ELISA assay signal (OD450) decreased proportionally to the increasing concentration of 5-FU.” left out, “section. […]” for “section.”
In addition to tegafur, several 5-FU structurally related chemicals were also evaluated for their cross-reactivity to the antibodies generated with 5-FU conjugate with the 3-carbon linker and were summarized below in Table 3. […]

[8] = Indirect antibody ELISA, cross-reactivity with DH-5-FU; settings: Table 3; (IC50 for 5-FU/IC50 for testing chemical)%
Description: as §1, §2

B1: mAb 61C6: monoclonal anti-5-FU antibody, IgG2b κ; heavy chain SEQ ID NO:2, light chain SEQ ID NO:6; from 3-carbon linker immunogen (antibody, listed as Mus musculus)
heavy: MDWLWNLLFLMAAAQSIQAQIQLVQSGPELKKPGETVTISCKASGYTLTNYGMNWVKQAPGKGLKWMGWINTNSGEPTYVEEFKGRFAFSLETSVSTVYLQISDLKHEDTATYFCARWGPHFNAYGWFAYWGQGTLVTVSAAKTTPPSVYPLAPGCGDTTGSSVTLGCLVKGYFPESVTVTWNSGSLSSSVHTFPALLQSGLYTMSSSVTVPSSTWPSQTVTCSVAHPASSTTVDKKLEPSGPISTINPCPPCKECHKCPAPNLEGGPSVFIFPPNIKDVLMISLTPKVTCVVVDVSEDDPDVQISWFVNNVEVHTAQTQTHREDYNSTIRVVSTLPIQHQDWMSGKEFKCKVNNKDLPSPIERTISKIKGLVRAPQVYILPPPAEQLSRKDVSLTCLVVGFNPGDISVEWTSNGHTEENYKDTAPVLDSDGSYFIYSKLNMKTSKWEKTDSFSCNVRHEGLKNYYLKKTISRSPGK
light: MMSSAQFLGLLLLCFQGTRCYIQMTQTASSLSASLGDRVTISCRASQDIWNYLNWYQQKPDGTIKLLIYYKSRLHSGVPSRFSGSGSGIDFSLTISNLEQEDFATYFCQQGHTLPWTFGGGSKLEIKRADAAPTVSIFPPSSEQLTSGGASVVCFLNNFYPKDINVKWKIDGSERQNGVLNSWTDQDSKDSTYSMSSTLTLTKDEYERHNSYTCEATHKTSTSPIVKSFNRNEC
notes: monoclonal anti-5-FU antibody, IgG2b κ; from 3-carbon linker immunogen
specificity to 5-FU [1]: better specificity to 5-FU | Cross-reactivity Cytosine [2]: 0.57% | reactivity with position 3 modified 5-FU (3-5C-5-FU-HSA) capture reagent [3]: reactive | Cross-reactivity Thymine [4]: Undetectble | Cross-reactivity Uracil [5]: 1.4% | Cross-reactivity 5-FU ([6]; Table 3, (IC50 for 5-FU/IC50 for testing chemical)%, reference): 100% | Ratio of IC50 on 5-FU Conjugates with 5-carbon Linker vs. 3-carbon Linker ([6]; indirect ELISA, 5-FU IC50 on 5-carbon vs 3-carbon linker 5-FU conjugate): 4.7 | Cross-reactivity Tegafur ([7]; Table 3): 28% | Tegafur Cross-reactivity** ([7]; indirect ELISA): 28% | Cross-reactivity DH-5-FU [8]: 1.4%
